Source: the RNAGym collection of RNA variant scans (doi:10.1073/pnas.2313332121)

B1: TPR t1 (parent)
chain: GACCAAUCUGCCCUCAGAGCUCGAGAACAUCUUCGGAUGCAGAGGAGGCAGGCUUCGGUGGCGCGAUAGCGCCAACGUCCUCAACCUCCAAUGCAUCCCACCACAUGAUGAUGCCUGAAGAGCCUUGGUUUUUUG

Variants of: B1
Experiment: polymerase ribozyme fitness, log enrichment relative to wild type (log ratio); higher = more active; in vitro selection for triplet polymerase activity
In short: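 Mutant libraries for each subunit of a heterodimeric triplet polymerase ribozyme were made by PCR and then transcribed. Each library underwent one round of in vitro selection in triplicate: annealing with a biotinylated primer, the partner subunit and triplets, frozen incubation at −7 °C, gel excision of extended constructs, streptavidin-bead capture and RT-PCR. Input and output libraries were Illumina-sequenced, and only genotypes with ≥10 input reads and ≥1 read per output were kept. Fitness is the logarithm, base 2, of genotype enrichment over wild-type enrichment, computed from inverse-variance-weighted replicate averages.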

First: C56A U59G A83G
Second: C56U U133A
The “polymerase ribozyme fitness (log ratio)” value of the first is lower: -1.48 for the first, -0.575 for the second.

Going from C56G C70A A118U to U55C C72G C79U, the “polymerase ribozyme fitness (log ratio)” value rises from -2.37 to 0.018.

First: C56G G69U
Second: G57U U78G C114U A118U
The “polymerase ribozyme fitness (log ratio)” value of the first is higher: -0.682 for the first, -3.81 for the second.

Compared with C56U A90G G93C, C56U U59G A74G C102A G127U is lower in “polymerase ribozyme fitness (log ratio)” value: -1.38 for the first, -3.57 for the second.

First: C56G G71U A121C
Second: G57U G58C
The “polymerase ribozyme fitness (log ratio)” value of the first is lower: -2.41 for the first, -1.12 for the second.

Going from G58A A111C A119C G120U G127U to C56U U96A U106A, the “polymerase ribozyme fitness (log ratio)” value rises from -1.16 to -0.662.

Compared with G58C C101G C114A, C56U C80A C114U is lower in “polymerase ribozyme fitness (log ratio)” value: -3.77 for the first, -4.51 for the second.

Compared with C56A C64U C124U G128A, G58A U59C is higher in “polymerase ribozyme fitness (log ratio)” value: -1.71 for the first, -0.583 for the second.

Going from G58C C85A to C56G C62U C64U C82A C89U C123A, the “polymerase ribozyme fitness (log ratio)” value falls from 0.0552 to -3.52.

First: C56G C89G U96A
Second: C56U U130C
The “polymerase ribozyme fitness (log ratio)” value of the first is lower: -2.31 for the first, 1.02 for the second.

First: C56U U130A
Second: C56U G61A
The “polymerase ribozyme fitness (log ratio)” value of the first is higher: 0.174 for the first, -4.41 for the second.

Going from G58C C86A C89G to G57A U78G C82G, the “polymerase ribozyme fitness (log ratio)” value rises from -4.05 to -0.698.

Going from U54G U132C to G58C C101G U112C U129G, the “polymerase ribozyme fitness (log ratio)” value falls from -0.456 to -1.34.

First: G57U C70U C76G U131C
Second: U55A C85A U112G
The “polymerase ribozyme fitness (log ratio)” value of the first is higher: -0.726 for the first, -2.37 for the second.

Going from C56U U131G to G57U C94A, the “polymerase ribozyme fitness (log ratio)” value falls from 0.127 to -1.08.

First: C56U G128A
Second: U55A C56A
The “polymerase ribozyme fitness (log ratio)” value of the first is lower: -1.64 for the first, -0.0197 for the second.

C56U C88U C114A G120A and U55A C101G are within 0.2 log units of each other in “polymerase ribozyme fitness (log ratio)” value: -1.81 for the first, -1.85 for the second.

Compared with C56A G128C, C56G U96A is higher in “polymerase ribozyme fitness (log ratio)” value: -2.8 for the first, -0.238 for the second.

Going from C56U C82G U130C to U55A G63A U78A, the “polymerase ribozyme fitness (log ratio)” value falls from -0.672 to -0.969.

Going from C56G C64U to G57A A75U U96C U131C, the “polymerase ribozyme fitness (log ratio)” value falls from -0.732 to -1.53.

Going from C56A G57C to U55G G61A C73U U81A C114A A119U, the “polymerase ribozyme fitness (log ratio)” value falls from 0.379 to -3.58.

Compared with G57C U87A, G57U C62U U67C U87G C101G G113C is lower in “polymerase ribozyme fitness (log ratio)” value: -1.1 for the first, -6.27 for the second.

Going from G57C C70U to G57A C73G U87G U125A, the “polymerase ribozyme fitness (log ratio)” value falls from -0.607 to -1.37.

First: U55C G61A C104A
Second: U55C G61U A90G U112C A119U
The “polymerase ribozyme fitness (log ratio)” value of the first is lower: -1.51 for the first, 0.196 for the second.

Going from U55A U133A to C56G C82G C115G A121U, the “polymerase ribozyme fitness (log ratio)” value falls from -0.185 to -0.801.

First: C56A A100C
Second: C56U C115G
The “polymerase ribozyme fitness (log ratio)” value of the first is higher: -1.19 for the first, -2.56 for the second.

Compared with G57A U59C G120C U132A, C56U G63U is lower in “polymerase ribozyme fitness (log ratio)” value: -0.265 for the first, -4.18 for the second.

Compared with C56U C80U, C56A G71A A100U is lower in “polymerase ribozyme fitness (log ratio)” value: -1.17 for the first, -5.55 for the second.

Compared with C56A C72G A90G, C56G A68G C73A A111G G135U is lower in “polymerase ribozyme fitness (log ratio)” value: -1.05 for the first, -6.08 for the second.

Going from C56A C88G A118U to G57U G77C U130G, the “polymerase ribozyme fitness (log ratio)” value falls from -1.12 to -2.56.

Going from C56G C72G C115A to C56G G110A U116G, the “polymerase ribozyme fitness (log ratio)” value falls from -2.98 to -3.62.

Going from G58C G63C to C56G C114G, the “polymerase ribozyme fitness (log ratio)” value falls from -2.61 to -3.74.

Going from C56U C104U to U54G U112A G117C, the “polymerase ribozyme fitness (log ratio)” value falls from 0.166 to -4.03.

First: C56U G117A
Second: U55A C73U A83G
The “polymerase ribozyme fitness (log ratio)” value of the first is lower: -1.46 for the first, -1.24 for the second.

U55G and U55A are within 0.2 log units of each other in “polymerase ribozyme fitness (log ratio)” value: 0.0266 for the first, -0.12 for the second.

Compared with U55C, C56A C97U is lower in “polymerase ribozyme fitness (log ratio)” value: -0.521 for the first, -1.33 for the second.

Compared with G58C G63C G128A, G57A A103G is lower in “polymerase ribozyme fitness (log ratio)” value: -1.77 for the first, -4.05 for the second.

Going from C56A G69U C73U C124A to C56U U112C G117C G120U G127C U132A, the “polymerase ribozyme fitness (log ratio)” value falls from 1.14 to -4.94.

First: C56A A83G A84C G135C
Second: U55G A121C
The “polymerase ribozyme fitness (log ratio)” value of the first is lower: -0.872 for the first, 0.81 for the second.

First: C56U G57A C79G
Second: C56A C73U C97U A103U G120C
The “polymerase ribozyme fitness (log ratio)” value of the first is higher: -1.48 for the first, -7.26 for the second.

Going from C56U C82U C86A U112G U129C to C56G G113C, the “polymerase ribozyme fitness (log ratio)” value falls from -1.4 to -1.92.

Compared with U55A C114U, U54G G71A G120C is lower in “polymerase ribozyme fitness (log ratio)” value: -2.35 for the first, -6.71 for the second.
